Target: GFP-LC3B (UniProt Q9GZQ8)
Assay: co-IP; GFP-LC3 captured on GFP-Trap magnetic beads from HEK-293 T lysates (NP-40 IP lysis buffer: 50 mM Tris-HCl pH 7.5, 150 mM NaCl, 1 mM EDTA, 1% IGEPAL), 1 h at 4 °C; HA-BNIP3 forms detected by blot; cells with or without 100 nM bafilomycin A1 and with or without exogenous FLAG-ULK1

Chain of HA-BNIP3 (WT) (natural protein) (Q12983 whole entry): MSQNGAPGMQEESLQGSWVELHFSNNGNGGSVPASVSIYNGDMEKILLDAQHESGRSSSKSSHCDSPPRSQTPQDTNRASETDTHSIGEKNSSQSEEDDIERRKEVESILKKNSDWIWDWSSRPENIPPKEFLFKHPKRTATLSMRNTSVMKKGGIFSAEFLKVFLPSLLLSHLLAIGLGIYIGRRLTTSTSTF

Substance	fold increase in binding with 100 nM bafilomycin A1 against untreated cells [fold]
HA-BNIP3 S17E (natural protein)	9
HA-BNIP3 (WT) (natural protein)	2.5

Reference: paper PMC8519931
